Measured values reported in US20240026037A1 (Memorial Sloan Kettering, published 2024).

Legend:
[1] = target: T1, Human GPA33 on GPA33+ colorectal cancer cell lines (Colo 205, LS 174T, SW 1222) (human, UniProt Q99795 22-319); experiment: FACS titration on SW1222 cells, geometric mean MFI [Cont.]
T1 construct: Endogenous GPA33 on human colorectal cancer cell lines; also called surface human GPA33; GPA33+ tumor cell lines
T1 sequence: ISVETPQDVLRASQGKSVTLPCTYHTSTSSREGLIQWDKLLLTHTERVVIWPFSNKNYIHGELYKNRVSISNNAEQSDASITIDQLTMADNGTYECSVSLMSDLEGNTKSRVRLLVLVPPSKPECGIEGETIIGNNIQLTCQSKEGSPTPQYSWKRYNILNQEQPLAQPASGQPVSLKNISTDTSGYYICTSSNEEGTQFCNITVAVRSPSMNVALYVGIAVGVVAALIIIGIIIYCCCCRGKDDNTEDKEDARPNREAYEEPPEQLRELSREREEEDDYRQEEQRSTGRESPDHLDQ

[2] = target: T2, Human GPA33 (recombinant protein, Novoprotein) (human, UniProt Q99795 22-235); experiment: SPR (Biacore) on immobilized GPA33, 25 C per legend paragraph 44; two-state fit
T2 construct: Bought recombinant protein immobilized on a CM5 chip; also called GPA33 antigen; tumor antigen GPA33
T2 sequence: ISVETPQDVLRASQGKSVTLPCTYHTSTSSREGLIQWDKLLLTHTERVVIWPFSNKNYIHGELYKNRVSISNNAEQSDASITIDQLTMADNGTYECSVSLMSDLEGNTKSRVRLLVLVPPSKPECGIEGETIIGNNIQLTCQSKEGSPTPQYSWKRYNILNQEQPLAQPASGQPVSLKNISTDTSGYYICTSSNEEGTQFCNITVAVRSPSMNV
Description: (§1) SPR analysis. Human GPA33 (Novoprotein, Summit, NJ) was immobilized on CM5 chips. Five concentrations of 2-fold serially diluted huA33 IgG1 or huA33-BsAbs (starting at 20 nM) were flowed over the chip using a Biacore™ T100 system (GE Healthcare, Chicago, IL). Binding kinetics of huA33 were measured at 25° C. and binding kinetics of huA33-BsAbs were measured at both 25° C. and 37° C. The sensorgrams were fitted with two state binding model for both to derive kinetic parameters.

[3] = target: T1, Human GPA33 on GPA33+ colorectal cancer …; experiment: FACS titration on Colo205 cells, geometric mean MFI
[4] = target: T2, Human GPA33 (recombinant protein, …); experiment: SPR (Biacore), human GPA33 immobilised on the chip; KD relative to that of BC015
Method in brief: (§2)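 Affinity (KD) was measured by surface plasmon resonance on a Biacore system, with recombinant human GPA33 (Novoprotein) immobilised on a CM5 sensor chip. Antibodies were injected at five concentrations, 2-fold serial dilutions starting at 20 nM. The sensorgrams were fitted kinetically to give rate constants and KD. Each KD is given as a ratio to the KD of a reference molecule.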

[5] = target: T2, Human GPA33 (recombinant protein, …); experiment: SPR (Biacore) on immobilized GPA33, 25 C per legend paragraph 44; column kd1 of the two-state fit
Description: as §1

[6] = target: T1, Human GPA33 on GPA33+ colorectal cancer …; experiment: FACS titration on LS174T cells, geometric mean MFI [Cont.]
[7] = target: T2, Human GPA33 (recombinant protein, …); experiment: SPR (Biacore) on immobilized GPA33, 25 C per legend paragraph 44; column ka1 of the two-state fit
Description: as §1

[8] = target: T2, Human GPA33 (recombinant protein, …); experiment: SPR (Biacore), human GPA33 immobilised on the chip; two-state fit (ka1, kd1, ka2, kd2); temperature not given on the sheet
Description: as §1

[9] = target: T1, Human GPA33 on GPA33+ colorectal cancer …; experiment: flow cytometry, LS 174T cells
[10] = target: T2, Human GPA33 (recombinant protein, …); experiment: SPR
Method in brief: as §2

[11] = target: T1, Human GPA33 on GPA33+ colorectal cancer …; experiment: FACS titration on Colo205 cells, geometric mean MFI (the text prints 2.46 nM and calls it IC50)
[12] = target: T2, Human GPA33 (recombinant protein, …); experiment: SPR (Biacore), human GPA33 immobilized on CM5 chip, two-state fit, kd1
Method in brief: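 Kinetic parameters, including the off-rate (kd1), were obtained by fitting surface plasmon resonance sensorgrams to a two-state binding model. On a Biacore T100 with recombinant human GPA33 immobilised on a CM5 chip, antibodies were passed over at five 2-fold serial dilutions from 20 nM. Runs used 25° C for the parent IgG1, and 25° C and 37° C for the bispecific formats.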

[13] = target: T2, Human GPA33 (recombinant protein, …); experiment: SPR (Biacore), human GPA33 immobilised on the chip; KD relative to that of TC170
Method in brief: as §2

[14] = target: T1, Human GPA33 on GPA33+ colorectal cancer …; experiment: flow cytometry, Colo 205 cells; Colo 205 cells
[15] = target: T1, Human GPA33 on GPA33+ colorectal cancer …; experiment: FACS binding to Colo205 cells (GPA33+); the text prints 2.46 nM for this pair
[16] = target: T1, Human GPA33 on GPA33+ colorectal cancer …; experiment: FACS binding to LS174T cells (GPA33+)
[17] = target: T2, Human GPA33 (recombinant protein, …); experiment: SPR (Biacore), human GPA33 immobilized on CM5 chip, two-state fit
Method in brief: (§3)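 GPA33 immobilized on CM5 chip; five 2-fold dilutions of huA33 IgG1 or huA33 bispecifics from 20 nM injected. Kinetics measured at 25 °C for huA33, at both 25 °C and 37 °C for bispecifics; sensorgrams fitted to a two-state binding model.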

[18] = target: T1, Human GPA33 on GPA33+ colorectal cancer …; experiment: FACS binding to SW1222 cells (GPA33+)
[19] = target: T1, Human GPA33 on GPA33+ colorectal cancer …; experiment: flow cytometry, SW 1222 cells
[20] = target: T2, Human GPA33 (recombinant protein, …); experiment: SPR (Biacore), human GPA33 immobilized on CM5 chip, two-state fit, ka1
Method in brief: as §3

[21] = target: T1, Human GPA33 on GPA33+ colorectal cancer …; experiment: FACS binding to Colo205 cells (GPA33+)
[22] = target: T2, Human GPA33 (recombinant protein, …); experiment: SPR (Biacore), human GPA33 immobilized on CM5 chip, IgG format
Description: as §1

[23] = target: T1, Human GPA33 on GPA33+ colorectal cancer …; experiment: cell binding to SW1222 Luc cells; IgG format
[24] = target: T1, Human GPA33 on GPA33+ colorectal cancer …; experiment: cell binding to LS174T Luc cells; IgG format

B1: BC016 (G3A H3L3) (bispecific antibody, human IgG1, kappa, N297A)
heavy: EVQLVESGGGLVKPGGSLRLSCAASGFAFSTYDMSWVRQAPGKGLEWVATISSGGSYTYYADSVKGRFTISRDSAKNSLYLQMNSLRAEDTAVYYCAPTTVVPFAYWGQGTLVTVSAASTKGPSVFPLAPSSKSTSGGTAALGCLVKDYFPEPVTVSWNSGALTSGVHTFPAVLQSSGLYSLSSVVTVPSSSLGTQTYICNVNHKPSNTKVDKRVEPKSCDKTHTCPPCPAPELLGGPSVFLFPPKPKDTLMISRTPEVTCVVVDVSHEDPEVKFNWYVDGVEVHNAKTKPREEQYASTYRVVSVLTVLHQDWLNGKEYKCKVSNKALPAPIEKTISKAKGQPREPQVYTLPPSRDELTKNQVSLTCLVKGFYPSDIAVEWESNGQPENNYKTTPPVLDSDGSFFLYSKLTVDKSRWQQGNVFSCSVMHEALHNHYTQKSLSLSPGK
light: DIQMTQSPSSLSTSVGDRVTITCKASQNVRTVVAWYQQKPGKAPKTLIYLASNRHSGVPSRFSGSGSGTEFTLTISNLQPEDFATYYCLQHWSYPLTFGSGTKLEVKRTVAAPSVFIFPPSDEQLKSGTASVVCLLNNFYPREAKVQWKVDNALQSGNSQESVTEQDSKDSTYSLSSTLTLSKADYEKHKVYACEVTHQGLSSPVTKSFNRGECTSGGGGSGGGGSGGGGSHVQLVESGGGLVQPGGSLRLSCAASGFSLTDYGVHWVRQAPGKGLEWLGVIWSGGGTAYNTALISRFTISRDNSKNTLYLQMNSLRAEDTAVYYCARRGSYPYNYFDAWGCGTLVTVSSGGGGSGGGGSGGGGSGGGGSGGGGSGGGGSQAVVTQEPSLTVSPGGTVTLTCGSSTGAVTASNYANWVQQKPGQCPRGLIGGHNNRPPGVPARFSGSLLGGKAALTLLGAQPEDEAEYYCALWYSDHWVIGGGTKLTVLG
notes: GPA33xDOTA IgG-[L]-scFv; The anti-DOTA scFv is fused to the C-terminus of the light chain
Work on B1 yielded an EC50 [1] of 0.35 nM, a Kd [2] of 0.00792 nM and an EC50 [3] of 0.74 nM. For the same binder, the “Fold change of KD (relative to BC015, lower is better)” value [4] was 0.07, the koff [5] was 0.000511 s⁻¹ and the EC50 [6] was 0.65 nM. For the same binder, the kon [7] was 5.5e+06 M⁻¹ s⁻¹ and the Kd [8] was 0.00792 nM.

B2: TC159 (bispecific antibody)
chain: EVQLVESGGGLVKPGGSLRLSCAASGFAFSTYDMSWVRQAPGKRLEWVATISSGGSYTYYLDSVKGRFTISRDNAKNSLYLQMNSLRAEDTAVYYCAPTTVVPFAYWGQGTLVTVSSGGGGSGGGGSGGGGSGGGGSGGGGSGGGGSDIQMTQSQSSLSTSVGDRVTITCKASQNVRTVVAWYQQKPGKSPKTLIYLASNRHTGVPSRFSGSGSGTEFTLTISNVQPEDFADYFCLQHWSYPLTFGSGTKLEIKRGGGGSGGGGSGGGGSGGGGSHVQLVESGGGLVQPGGSLRLSCAASGFSLTDYGVHWVRQAPGKGLEWLGVIWSGGGTAYNTALISRFTISRDNSKNTLYLQMNSLRAEDTAVYYCARRGSYPYNYFDAWGCGTLVTVSSGGGGSGGGGSGGGGSGGGGSGGGGSGGGGSQAVVTQEPSLTVSPGGTVTLTCGSSTGAVTASNYANWVQQKPGQCPRGLIGGHNNRPPGVPARFSGSLLGGKAALTLLGAQPEDEAEYYCALWYSDHWVIGGGTKLTVLGTPLGDTTHTSGKPLDGEYFTLQIRGRERFEMFRELNEALELKDAQAGKEPGGSGGAPHHHHHH
notes: Previously described GPA33xDOTA SADA clone whose GPA33 scFv comes from another clone; Carries the p53 SADA (tetramerization) domain
B2 was tested, and the IC50 [9] was 1.22 nM, the “fold higher affinity than TC160” value [10] was 3 fold and the EC50 [11] was 2.47 nM. For the same binder, the koff [12] was 0.00181 s⁻¹, the “Fold change of KD (relative to TC170, lower is better)” value [13] was 1.4 and the EC50 [14] was 2.46 nM. For the same binder, the EC50 [15] was 2.47 nM, the “fold change of binding EC50 (relative to TC170, lower is better)” value [16] was 3.94 and the Kd [17] was 0.0216 nM. For the same binder, the ka2 [17] was 0.00613 s⁻¹, the kd2 [17] was 0.000315 s⁻¹ and the “fold change of binding EC50 (relative to TC170, lower is better)” value [18] was 0.24. For the same binder, the IC50 [19] was 0.4 nM, the kon [20] was 4.09e+06 M⁻¹ s⁻¹ and the “fold change of binding EC50 (relative to TC170, lower is better)” value [21] was 3.34.

B3: Humanized A33 antibody with variable heavy chain VH1 and variable light chain VK4 (antibody, IgG1, V domains shown)
VH: EVQLVESGGGLVKPGGSLRLSCAASGFAFSTYDMSWVRQAPGKGLEWVSTISSGGSYTYYADSVKGRFTISRDNAKNSLYLQMNSLRAEDTAVYYCAPTTVVPFAYWGQGTLVTVSA
VL: DIQMTQSPSSLSASVGDRVTITCKASQNVRTVVAWYQQKPGKAPKTLIYLASNRHTGVPSRFSGSGSGTEFTLTISNLQPEDFATYYCLQHWSYPLTFGSGTKLEVK
notes: Mouse A33 was humanized as IgG1 and tested in IgG format; also called VH1/VK4; huA33 IgG1
Work on B3 yielded a Kd [22] of 0.168 nM, an EC50 [23] of 0.466 µg/mL and an EC50 [24] of 0.503 µg/mL.
